From US20160228506A1, “Compositions and Formulations for Prevention and Reduction of Tumorigenesis, Cancer Cell Proliferation and Invasion, and Methods of Production and Use Thereof in Cancer Treatment” (PRONUTRIA, INC., priority 2013, published 2016)

B1: SEQID-00100: nutritive polypeptide (protein, listed as Lactobacillus acidophilus)
chain: MSEEEIFNKIKDLIADNFEVDKDSITENTNFMNDLDADSIDLVEFILQLEDEFGAEIPDDEAEKIKTVGDAVSYIKSHQG
B2: SEQID-00302: nutritive polypeptide (protein)
chain: MAKKTVANLSASELSGKKVLVRADFNVPLDNGSISDDTRIRAALPTIQDLTSKGAKVILSSHFGRPQGQVVESMRLTPVAARLSELLGKTVKKCDDCIGEEVAVAVGAMSDGDVLLLENVRFHAAEEKNDPEFAKQLASVADLYVNDAFGTAHRAHASTEGVTKYLSPCVAGYLIEKELQFLQGAIESPQRPLAAIIGGSKVSSKIGVIEALLDKCDKLLLGGGMIFTFYKARGLSVGNSLVEEDKLELAKSLEAKAKEKGVTMLLPTDVVLADKFAADADSQTVSVEAIPDGWMGLDIGPDSVKVFQEALGDCKTVLWNGPMGVFEFEKFAAGTRAIAQTLAELTSTGTTTIIGGGDSVAAVEQLNLGEKMSHISTGGGASLELLEGKQLPGIVALDDA
modifications: Arthrospira platensis C1
notes: nutritive polypeptide
B3: SEQID-00546: protein of the 168 nutritive polypeptide library (protein, listed as Saccharomyces cerevisiae)
chain: MCSAGGIRRPIQIEEFKTAISGMSDMELAQIKTEIENSINHLQRSNARLGKYIAKLEGADDRLEADDSDDLENIDSGDLALYKDSVRENEIVLNNYNERVDALEQETVYRKTGHGKSKHEVEAKDNTNKGPDVDMDNSNVDVVTPNSIFI
modifications: source: /note="strain ATCC 204508 / S288c"
notes: protein of the 168 nutritive polypeptide library
B4: SEQID-00102: nutritive polypeptide (protein, listed as Lactobacillus johnsonii)
chain: MTEEEIFNKIADMISERFSIDRDKITKDLNFQNDLDADSIDFVELVMDLEDTFGAEIPDDDAEKLQTVGEAVEYIKSHQN
B5: SEQID-00220: nutritive polypeptide (protein, listed as Bos taurus)
chain: DTKKKVDDDLGTIENLEEAKKKLLKDVEVLSQRLEEKALAYDKLEKTKTRLQQELDDLLVDLDHQ
B6: SEQID-00601: protein of the 168 nutritive polypeptide library (protein, listed as Agaricus bisporus)
chain: MTRSWEPGTQYNLGDVVEYNGDEYKIIQAHSSQSDWAPDRTPALWGKLPHRHHQQGQYQQQQECQPQQPQKTCYDYGKQEQAPQHSDSKEKKNWFGNITESQKQALEVGGGVALGAGLLGGAFAAWKHHQHKEEAHDSFEAWANAARSRAEEFRAKGPQGPATWVYNEGKHIPEQAILVGTEHNWNLYICRAYCDGGVQIGKASDVFKKGAVIGYKEDEHHLDKYEILLGDMRGLKWVQTGNSLDLASLGATPVEGGYENDHTRLYIARAFHKGAKHPGKVSERLDGAYIPYDGKEKCVKEYEVLCYL
modifications: source: /note="var. bisporus"; source: /note="strain H97 / ATCC MYA-4626 / FGSC 10389"
notes: as for B3
B7: SEQID-00610: protein of the 168 nutritive polypeptide library (protein, listed as Saccharomyces cerevisiae)
chain: MVLEATVLVIDNSEYSRNGDFPRTRFEAQIDSVEFIFQAKRNSNPENTVGLISGAGANPRVLSTFTAEFGKILAGLHDTQIEGKLHMATALQIAQLTLKHRQNKVQHQRIVAFVCSPISDSRDELIRLAKTLKKNNVAVDIINFGEIEQNTELLDEFIAAVNNPQEETSHLLTVTPGPRLLYENIASSPIILEEGSSGMGAFGGSGGDSDANGTFMDFGVDPSMDPELAMALRLSMEEEQQRQERLRQQQQQQDQPEQSEQPEQHQDK
modifications: source: /note="strain ATCC 204508 / S288c"
notes: as for B3
B8: SEQID-00305: nutritive polypeptide (protein, listed as Bos taurus)
chain: MPHQYPALTPEQKKELCDIAHRIVAPGKGILAADESTGSIAKRLQSIGTENTEENRRFYRQLLLTADDRVNPCIGGVILFHETLYQKADDGRPFPQVIKAKGGVVGIKVDKGVVPLAGTNGETTTQGLDGLSERCAQYKKDGADFAKWRCVLKIGEHTPSSLAIMENANVLARYASICQQNGIVPIVEPEILPDGDHDLKRCQYVTEKVLAAVYKALSDHHIYLEGTLLKPNMVTPGHACTQKYSHEEIAMATVTALRRTVPPAVPGITFLSGGQSEEEASINLNAINKCPLLKPWALTFSYGRALQASALKAWGGKKENLKAAQEEYVKRALANSLACQGKYTPSGKAGAAASESLFISNHAY
B9: SEQID-00647: protein of the 168 nutritive polypeptide library (protein)
chain: MALSKIEEARQLNDDDLSEQILEIKKQLANLRLLKATGRLEKPHEIRHTRHRLSQLLTVERERQLPNQSPA
modifications: Arthrospira platensis C1
notes: as for B3
B10: SEQID-00598: nutritive polypeptide naturally produced in Flaxseed, recombinantly expressed in E. coli (protein, listed as Linum usitatissimum)
chain: MSRRCPGKNAWPELVGKSGNMAAATVERENRNVHAIVLKEGSAMTKDFRCDRVWVIVNDHGVVTSVPHIT
B11: SEQID-00099: nutritive polypeptide (protein, listed as Thermosynechococcus elongatus)
chain: MNQSEILEKVKAIVADQLSVDPEKVVPEASFAEDLNADSLDSVELIMALEEEFGVEIPDEEAEKLKTVQDVLDFINNKVAA
B12: SEQID-00098: nutritive polypeptide (protein, listed as Lactococcus lactis)
chain: MAVFEKVQDIIVDELGKEKEEVTLETSFEELDADSLDLFQIINDIEDEFDVEVDTEADMKTVADLVKYVENNK
B13: SEQID-00287: nutritive polypeptide (protein, listed as Saccharomyces cerevisiae)
chain: LVLGALLDTSHKFRNLDKDLCEKCAKCISMIGVLDVTKHEFKRTTYSENEVYDLNDSVQTIKFLIWVINDILV
modifications: source: /note="strain ATCC 204508 / S288c"
notes: nutritive polypeptide
B14: SEQID-00606: protein of the 168 nutritive polypeptide library (protein)
chain: MASEGDHHHHHHHHQDHDHHHHDHDHHHHHDGEGETNSWVGKDGKVYHSHDGLAPHSHEPIYSPGYFTRRAPPLLNRNFNERAFTVGIGGPVGTGKTALMLALCELLRENYSLAAVTNDIFTKEDGEFLVKHKALPEERIRAVETGGCPHAAIREDISINLGPLEELSNLFKADILLCESGGDNLAANFSRELADYIIYIIDVSGGDKIPRKGGPGITQADLLVINKTDLAPAIGADLAVMQRDALRMRDGGPFVFAQVKHKIGVEEIGNLVLQAWEAATGNKRH
modifications: Glycine max
notes: as for B3

What was measured:
[1] = Thermostability, temperature of aggregation (ProteoStat Thermal Shift); assay type: physicochemical; parameters: key to Tagg: temperature in °C; details: for Tagg (pH 7.1): Table E31D, heated 25° C. to 95° C.
Procedure: The thermostability of proteins in a buffer cocktail of Citric Acid and Dibasic Sodium Phosphate over a pH range of 2.8 to 7.1 (preparation described above in Table E31B) was determined using the ProteoStat® Thermal Shift Stability Kit (Enzo Life Sciences) according to the manufacturer's standard protocol. Briefly, protein solutions (˜10 mg/ml) containing 1× ProteoStat TS Detection Reagent were heated from 25° C. to 95° C. at a rate of 0.5° C. per 30 sec using a real-time PCR (rtPCR) thermocycler (BioRad) equipped with a plate reader (SynergyMx, Biotek) while monitoring the fluorescence with a Texas Red filter.

[2] = pH solubility; assay type: physicochemical; details: for pH Range where Protein is >80% detected as Soluble and A650 <1 OD: Low: lower pH; for pH Range where Protein is >80% detected as Soluble and A650 <1 OD: High: upper pH
Procedure: pH Solubility. […] Protein was either lyophilized and then resuspended in buffer cocktail mixtures, or concentrated and then spiked into buffer cocktail mixtures at a final protein concentration of 5 to 30 mg/ml. As a control, protein was also dissolved in a solution of 8 M urea. Protein solutions were shaken for 10 min at room temperature. Turbidity of proteins was determined by measuring the absorbance of protein solutions at 650 nm. The protein solution was then centrifuged for 10 min at 1100×g to pellet undissolved or precipitated protein. The soluble protein fraction (supernatant) was sampled and protein concentration was measured by one or more of the following methods: Coomassie Plus Protein Assay (Pierce), Chip electrophoresis, gel electrophoresis, and/or absorbance at 280 nm. The pH range over which select proteins remained greater than 80% soluble as determined by Bradford and the A650 value are listed in Table E31C.

[3] = Intact half-life during simulated gastric fluid (SGF) digestion; details: for SGF Half-life (t½): SGF pH 1.5, pepsin:polypeptide 1:20 w/w, 37° C., intact protein; for Half-life: purified proteins, chip electrophoresis
Procedure: In this experiment the nutritive polypeptide was exposed to a series of proteases that are active in the stomach (pepsin) and intestine (trypsin and chymotrypsin), and the presence of intact protein was measured over time. Specifically, the nutritive polypeptide was first treated at a concentration of 2 g/L with simulated gastric fluid (SGF) (0.03 M NaCl, titrated with HCl to pH 1.5 with a final pepsin:polypeptide ratio of 1:20 w/w) at 37° C. Time points were sampled from the reaction and quenched by addition of 0.2 M Na2CO3. […] Time points were sampled from the reaction and quenched by addition of Trypsin/Chymotrypsin Inhibitor (Sigma) solution until 240 min.
Time point samples were analyzed for intact protein by chip electrophoresis, polyacrylamide gel electrophoresis, or western blot. For chip electrophoresis (Labchip GX II), samples were analyzed using a HT Low MW Protein Express LabChip® Kit (following the manufacturer's protocol). A protein ladder was loaded every 12 samples for molecular weight determination (kDa) and quantification. For polyacrylamide gel electrophoresis, samples (1 μg) were separated on a NuPAGE® Novex® Bis-Tris Precast gel (Life Technologies) according to the manufacturer's protocol. The gel was stained using SimplyBlue™ SafeStain (Invitrogen) and imaged using a Chemidoc XRS+ (BioRad) or transferred onto nitrocellulose membranes using the iBlot® Dry Blotting System (Life Technologies) and iBlot® Western Detection Kit (Life Technologies) according to the manufacturer's protocol. Proteins were detected by blotting with Anti-His [C-term]-HRP antibody diluted 3:5000 in Blok™-PO Blocking Buffer using the SNAP I.d.® Protein Detection System (Millipore) according to the manufacturer's protocol. Blots were treated with Luminata Classico Western HRP Substrate (Millipore) according to the manufacturer's protocol and imaged using chemiluminescent detection on the Molecular Imager® Gel Doc™ XR+ System (Bio-Rad). Quantification of intact protein was determined by densitometry using ImageLab (BioRad). For all analysis methods the relative concentration of the polypeptide at each time point (if detected) was plotted overtime and fit to an exponential curve to calculate the intact half-life.
Specifically, the t=0 (enzyme-free control) and t=2 min samples from the SGF digest were analyzed for intact protein as described by chip electrophoresis, SDS-PAGE, western blot, and/or LC-MS/MS. Relative quantities of polypeptides at each time point were determined and the percentage of intact protein remaining at t=2 was determined. Intact half-life values determined using this method are reported as greater or less than 2 min to indicate more or less than 50% of the protein remained intact at t=2 min, respectively.

[4] = SGF digest of 168 nutritive polypeptide library, intact protein by LC-MS/MS; assay type: in vitro ADME; details: for % Intact Protein at 10 min: 168 nutritive polypeptide library SGF digest, LC-MS/MS spectral counts; for % Remaining at 10 min: 168 nutritive polypeptide library, LC-MS/MS
How it was run: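 Spectral-count ratios (10 min vs 0 min, peak gel fraction plus neighbours) give the percent of each protein left intact after SGF digestion of a pooled, IMAC-purified 168-member recombinant library. Samples were gel-fractionated, trypsinised in-gel and run on Orbitrap nanoLC-MS/MS, requiring two unique peptides at 1% FDR.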

Molecule	SGF Half-life (t½) [3] [s]	Tagg (pH 7.1) [1]	% Intact Protein at 10 min [4] [%]	% Remaining at 10 min [4] [%]	Half-life [3] [s]	also measured
B1	120					Tagg ([1]; pH 2.8): 95; Tagg ([1]; pH 3.7): 95; Tagg ([1]; pH 3.9): 95; Tagg ([1]; pH 4.3): 83^; Tagg ([1]; pH 4.6): 84^; Tagg ([1]; pH 5.0): 95; Tagg ([1]; pH 5.6): 95; Tagg ([1]; pH 6.0): 95; Tagg ([1]; pH 6.5): 95; Tagg ([1]; pH 7.1): >95; pH Range where Protein is >80% detected as Soluble and A650 <1 OD: Low [2]: 4.3; pH Range where Protein is >80% detected as Soluble and A650 <1 OD: High [2]: 7.1
B2	12	46				
B3	<600		0			
B4	36	>95				
B5	30	>95				
B6	12		1.1	1.1	12	Tagg ([1]; pH 2.8): 95; Tagg ([1]; pH 3.7): 95; Tagg ([1]; pH 4.3): 95^; Tagg ([1]; pH 6.5): 45.5; Tagg ([1]; pH 7.1): 48.5
B7	24	54.5	3.3	3.3	24	
B8	12	48				
B9	12		12	12	12	
B10	30		24.3	24.3	30	
B11	60	64				
B12	24					Tagg ([1]; pH 7.1): >95
B13	180					pH Range where Protein is >80% detected as Soluble and A650 <1 OD: Low [2]: 6.2; pH Range where Protein is >80% detected as Soluble and A650 <1 OD: Other ([2]; other pH): 2.6; pH Range where Protein is >80% detected as Soluble and A650 <1 OD: High [2]: 9.1
B14	18	95	0	0	18	
